Source: patent US20180023146A1 (CLEVELAND CLINIC FOUNDATION, published 2018)

Molecular target: T1, 3βHSD1 (367N)-HA (human, UniProt P14060 2-373)
T1 construct: Expressed from pCMX-HSD3B1-HA in 293T cells and immunoprecipitated with anti-HA antibody; also called HSD3B1(N)-HA; not shown: HA tag fused to HSD3B1
T1 sequence (looked up): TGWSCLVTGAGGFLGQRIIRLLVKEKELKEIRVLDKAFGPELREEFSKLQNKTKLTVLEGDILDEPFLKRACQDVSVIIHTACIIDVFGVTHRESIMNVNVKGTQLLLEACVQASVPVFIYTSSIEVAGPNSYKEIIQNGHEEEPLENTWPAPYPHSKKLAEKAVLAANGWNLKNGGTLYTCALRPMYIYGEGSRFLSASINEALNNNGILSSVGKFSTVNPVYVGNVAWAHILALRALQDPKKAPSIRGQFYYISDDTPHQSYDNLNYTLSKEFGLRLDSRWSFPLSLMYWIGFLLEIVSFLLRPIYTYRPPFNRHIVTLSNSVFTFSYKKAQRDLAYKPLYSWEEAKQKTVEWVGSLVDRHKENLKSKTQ
Experiment: SILAC with high-resolution mass spectrometry; 367N-HA (heavy) and 367T-HA (light) immunoprecipitations mixed 1:1

normalized protein ratio (SILAC; 3βHSD1 (367N)-HA against 3βHSD1 (367T)-HA immunoprecipitates): 1.67
B1: AMFR (autocrine mobility factor receptor) (enzyme, UniProt Q9UKV5 1-643, looked up)
chain: MPLLFLERFPWPSLRTYTGLSGLALLGTIISAYRALSQPEAGPGEPDQLTASLQPEPPAPARPSAGGPRARDVAQYLLSDSLFVWVLVNTACCVLMLVAKLIQCIVFGPLRVSERQHLKDKFWNFIFYKFIFIFGVLNVQTVEEVVMWCLWFAGLVFLHLMVQLCKDRFEYLSFSPTTPMSSHGRVLSLLVAMLLSCCGLAAVCSITGYTHGMHTLAFMAAESLLVTVRTAHVILRYVIHLWDLNHEGTWEGKGTYVYYTDFVMELTLLSLDLMHHIHMLLFGNIWLSMASLVIFMQLRYLFHEVQRRIRRHKNYLRVVGNMEARFAVATPEELAVNNDDCAICWDSMQAARKLPCGHLFHNSCLRSWLEQDTSCPTCRMSLNIADNNRVREEHQGENLDENLVPVAAAEGRPRLNQHNHFFHFDGSRIASWLPSFSVEVMHTTNILGITQASNSQLNAMAHQIQEMFPQVPYHLVLQDLQLTRSVEITTDNILEGRIQVPFPTQRSDSIRPALNSPVERPSSDQEEGETSAQTERVPLDLSPRLEETLDFGEVEVEPSEVEDFEARGSRFSKSADERQRMLVQRKDELLQQARKRFLNKSSEDDAASESFLPSEGASSDPVTLRRRMLAAAAERRLQKQQTS
notes: It appears to be the protein of the human 293T cells, co-immunoprecipitated with HA-tagged 3βHSD1; also called gp78; ubiquitin E3-ligase AMFR
